Assay results reported in article PMC6540952.

System: Nc1ncnc2c1ncn2[C@@H]1O[C@H](COP(=O)(O)OP(=O)(O)OP(=O)(O)O)[C@@H](O)[C@H]1O
Experiment: purified protein
Type: biochemical, Homo sapiens

Substance IP6K1 (Homo sapiens) has a Km of 353 ± 167 µM.
